T1: TNFR1 (Homo sapiens, UniProt P19438)
T1 chain: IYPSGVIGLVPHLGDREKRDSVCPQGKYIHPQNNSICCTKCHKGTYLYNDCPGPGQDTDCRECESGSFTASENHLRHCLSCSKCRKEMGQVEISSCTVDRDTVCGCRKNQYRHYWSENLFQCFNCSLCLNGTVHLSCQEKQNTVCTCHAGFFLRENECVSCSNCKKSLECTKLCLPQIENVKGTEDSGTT

B1: A105L (designed binder)
chain: SMEEEVEKAAKEYEKKKKEAIEKHLEKLKAKDKEAAERFLKELEEAAKEYAKDEAKTMSEEEAKRRAKKYKEKVLLSELSEEEQKEIKEAEEKLVRTILKYVEELAK
B2: E103Y (designed binder)
chain: B1 chain with E103Y, L105A
B3: S59I (designed binder)
chain: B1 chain with S59I, L105A
B4: E4W (designed binder)
chain: B1 chain with E4W, L105A
B5: K69P (designed binder)
chain: B1 chain with K69P, L105A
B6: I87L (designed binder)
chain: B1 chain with I87L, L105A
B7: K88P (designed binder)
chain: B1 chain with K88P, L105A
B8: S80I (designed binder)
chain: B1 chain with S80I, L105A
B9: E7F (designed binder)
chain: B1 chain with E7F, L105A
B10: E26L (designed binder)
chain: B1 chain with E26L, L105A
B11: E54S (designed binder)
chain: B1 chain with E54S, L105A
B12: L40Q (designed binder)
chain: B1 chain with L40Q, L105A
B13: L28V (designed binder)
chain: B1 chain with L28V, L105A
B14: E61Y (designed binder)
chain: B1 chain with E61Y, L105A
B15: L75D (designed binder)
chain: B1 chain with L75D, L105A
B16: E83M (designed binder)
chain: B1 chain with E83M, L105A
B17: K16S (designed binder)
chain: B1 chain with K16S, L105A
B18: E19C (designed binder)
chain: B1 chain with E19C, L105A
B19: L40D (designed binder)
chain: B1 chain with L40D, L105A
B20: A63W (designed binder)
chain: B1 chain with A63W, L105A
B21: K27P (designed binder)
chain: B1 chain with K27P, L105A
B22: E86P (designed binder)
chain: B1 chain with E86P, L105A
B23: K29N (designed binder)
chain: B1 chain with K29N, L105A
B24: A55M (designed binder)
chain: B1 chain with A55M, L105A
B25: D53W (designed binder)
chain: B1 chain with D53W, L105A
B26: Y13L (designed binder)
chain: B1 chain with Y13L, L105A
B27: K31G (designed binder)
chain: B1 chain with K31G, L105A
B28: V6L (designed binder)
chain: B1 chain with V6L, L105A
B29: L76I (designed binder)
chain: B1 chain with L76I, L105A
B30: E3K (designed binder)
chain: B1 chain with E3K, L105A
B31: F39D (designed binder)
chain: B1 chain with F39D, L105A
B32: E19L (designed binder)
chain: B1 chain with E19L, L105A
B33: F39W (designed binder)
chain: B1 chain with F39W, L105A
B34: A46K (designed binder)
chain: B1 chain with A46K, L105A
B35: K71R (designed binder)
chain: B1 chain with K71R, L105A
B36: E91M (designed binder)
chain: B1 chain with E91M, L105A
B37: K23T (designed binder)
chain: B1 chain with K23T, L105A
B38: R96N (designed binder)
chain: B1 chain with R96N, L105A
B39: E34C (designed binder)
chain: B1 chain with E34C, L105A
B40: E49L (designed binder)
chain: B1 chain with E49L, L105A
B41: K48E (designed binder)
chain: B1 chain with K48E, L105A
B42: E7T (designed binder)
chain: B1 chain with E7T, L105A
B43: M2L (designed binder)
chain: B1 chain with M2L, L105A
B44: E104W (designed binder)
chain: B1 chain with E104W, L105A
B45: T97Q (designed binder)
chain: B1 chain with T97Q, L105A
B46: R38G (designed binder)
chain: B1 chain with R38G, L105A
B47: K64S (designed binder)
chain: B1 chain with K64S, L105A
B48: L40N (designed binder)
chain: B1 chain with L40N, L105A
B49: E54H (designed binder)
chain: B1 chain with E54H, L105A
B50: E61M (designed binder)
chain: B1 chain with E61M, L105A
B51: H24L (designed binder)
chain: B1 chain with H24L, L105A
B52: A46L (designed binder)
chain: B1 chain with A46L, L105A
B53: E78C (designed binder)
chain: B1 chain with E78C, L105A
B54: T57A (designed binder)
chain: B1 chain with T57A, L105A
B55: E78T (designed binder)
chain: B1 chain with E78T, L105A

Residue numbers refer to the chain shown, from its start. Names may count otherwise.

The target in the test is T1, TNFR1. As to the kind of experiment: yeast display SC50.
With B1, the “apparent Kd (screen)” value was determined as 1.86 nM.
The same measure for B2: 1.86 nM.
On to B3, for which the “apparent Kd (screen)” value was found to be 2.73 nM.
The figure for B4 is 1.54 nM; for B5 it is 22.2 nM.
In the case of B6, the “apparent Kd (screen)” value is 2.25 nM.
The same measure for B7: 7.78 nM; for B8: 1.69 nM; for B9: 20.2 nM.
On to B10, for which the “apparent Kd (screen)” value was 0.869 nM.
Consider B11, for which the “apparent Kd (screen)” value worked out at 6.43 nM.
The same measure for B12: 0.49 nM; for B13: 0.79 nM.
As for B14, the “apparent Kd (screen)” value is 1.86 nM.
The figure for B15 is 5.84 nM; for B16 it is 0.446 nM.
Consider B17, for which the “apparent Kd (screen)” value turned out to be 3 nM.
The same measure for B18: 0.446 nM; for B19: 1.4 nM; for B20: 1.54 nM.
The same measure for B21: 2.73 nM; for B22: 12.5 nM; for B23: 0.539 nM.
The same measure for B24: 0.446 nM; for B25: 10.4 nM.
Regarding B26, the “apparent Kd (screen)” value is 1.86 nM.
The same measure for B27: 0.653 nM.
The figure for B28 is 3 nM; for B29 it is 1.16 nM; for B30 it is 0.653 nM.
The figure for B31 is 7.07 nM.
For B32, the “apparent Kd (screen)” value came to 0.49 nM.
The same measure for B33: 1.05 nM; for B34: 4.39 nM; for B35: 0.593 nM.
The figure for B36 is 11.4 nM; for B37 it is 0.446 nM.
The same measure for B38: 3 nM; for B39: 1.16 nM.
As to B40, the “apparent Kd (screen)” value was determined as 10.4 nM.
As for B41, the “apparent Kd (screen)” value stood at 0.446 nM.
The same measure for B42: 2.73 nM; for B43: 1.05 nM; for B44: 0.869 nM.
B45: the “apparent Kd (screen)” value was determined as 0.446 nM.
The figure for B46 is 2.73 nM; for B47 it is 0.718 nM; for B48 it is 0.539 nM.
The same measure for B49: 12.5 nM; for B50: 1.27 nM.
Regarding B51, the “apparent Kd (screen)” value was found to be 0.539 nM.
The figure for B52 is 12.5 nM.
B53: the “apparent Kd (screen)” value was 0.49 nM.
The figure for B54 is 2.73 nM; for B55 it is 1.27 nM.

Source of the values: article PMC12416549 (2024).
